Growth rate of single cofilin-1 domains, normalized by the cofilin concentration data for one substance are collected here from publication doi:10.1101/2020.02.26.966614.

The target of the test is MICAL1-oxidized actin filaments (alpha-skeletal actin, rabbit) (rabbit) (UniProt P68135). In words: single-filament microfluidics with fluorescence microscopy.

“eGFP-S3D-cofilin-1 (from UniProt P18760 1-166) (natural protein)” returned a growth rate of single cofilin-1 domains, normalized by the cofilin concentration of 10 sub/s/µM.
